From patent US20130039923A1 (Novo Nordisk, published 2013)
Residue numbers refer to the chain shown, from its start. In names and notes the source's numbering stands. Blank lines part the entries; values can stand above or below the molecule they belong to.

T1: human IL20R1/IL20R2 receptor complex (human, UniProt Q9UHF4 30-553; Q6UXL0 30-311)
T1 sequence (looked up) 1: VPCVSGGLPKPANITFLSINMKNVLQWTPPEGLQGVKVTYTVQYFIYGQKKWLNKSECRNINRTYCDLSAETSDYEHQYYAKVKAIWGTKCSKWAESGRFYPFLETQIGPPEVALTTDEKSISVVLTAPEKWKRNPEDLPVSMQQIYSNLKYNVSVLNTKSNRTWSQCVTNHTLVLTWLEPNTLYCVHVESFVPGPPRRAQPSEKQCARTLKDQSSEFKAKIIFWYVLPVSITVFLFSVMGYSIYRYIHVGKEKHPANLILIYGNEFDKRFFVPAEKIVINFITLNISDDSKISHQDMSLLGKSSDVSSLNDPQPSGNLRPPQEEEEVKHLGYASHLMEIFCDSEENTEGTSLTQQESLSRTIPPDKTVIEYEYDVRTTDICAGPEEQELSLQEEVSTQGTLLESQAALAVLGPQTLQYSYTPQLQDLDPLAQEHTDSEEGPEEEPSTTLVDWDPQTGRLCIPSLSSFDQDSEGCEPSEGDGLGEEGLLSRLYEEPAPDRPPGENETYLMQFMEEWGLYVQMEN
T1 sequence (looked up) 2: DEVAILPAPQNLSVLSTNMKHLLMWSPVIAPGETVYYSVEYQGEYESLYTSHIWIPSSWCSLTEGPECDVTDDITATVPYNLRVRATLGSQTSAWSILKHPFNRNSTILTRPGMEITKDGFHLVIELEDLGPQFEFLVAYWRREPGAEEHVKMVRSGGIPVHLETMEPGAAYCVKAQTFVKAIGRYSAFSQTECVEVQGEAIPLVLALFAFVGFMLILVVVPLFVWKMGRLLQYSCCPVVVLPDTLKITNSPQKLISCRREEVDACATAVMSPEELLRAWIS

T2: human IL22R1/IL20R2 receptor complex (human, UniProt Q8N6P7 16-574; Q6UXL0 30-311)
T2 sequence (looked up) 1: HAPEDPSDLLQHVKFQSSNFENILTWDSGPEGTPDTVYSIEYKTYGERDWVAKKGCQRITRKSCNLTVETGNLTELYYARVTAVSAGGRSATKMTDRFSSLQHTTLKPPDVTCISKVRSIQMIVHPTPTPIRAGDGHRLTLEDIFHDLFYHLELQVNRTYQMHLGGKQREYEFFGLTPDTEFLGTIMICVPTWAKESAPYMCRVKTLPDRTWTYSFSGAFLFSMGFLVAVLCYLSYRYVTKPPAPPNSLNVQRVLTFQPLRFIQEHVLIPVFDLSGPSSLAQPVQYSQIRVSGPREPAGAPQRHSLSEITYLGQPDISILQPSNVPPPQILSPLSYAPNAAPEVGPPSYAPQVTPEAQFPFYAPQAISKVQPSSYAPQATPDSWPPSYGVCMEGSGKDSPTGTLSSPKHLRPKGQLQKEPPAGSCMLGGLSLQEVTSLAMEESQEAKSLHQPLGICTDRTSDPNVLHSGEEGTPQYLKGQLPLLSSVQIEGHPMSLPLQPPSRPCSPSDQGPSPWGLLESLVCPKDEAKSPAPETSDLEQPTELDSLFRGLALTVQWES
T2 sequence (looked up) 2: T1 sequence (looked up) 2

B1: recombinant human interleukin-20 (ligand)
chain: LKTLNLGSCVIATNLQEIRNGFSEIRGSVQAKDGNIDIRILRRTESLQDTKPANRCCLLRHLLRLYLDRVFKNYQTPDHYTLRKISSLANSFLTIKKDLRLCHAHMTCHCGEEAMKKYSQILSHFEKLEPQAAVVKALGELDILLQWMEETE
B2: human anti-IL20 antibody 2F6 (antibody, human IgG4, V domains shown)
VH: QITLKESGPTLVKPTQTLTLTCTFSGFSFSTNGVGVGWIRQPPGKALEWLALIYWNDDKRYSPSLKSRLTITKDTSKNQVVLTMTNMDPLDTATYYCAHSPFIMVRGVIITFFDFWGQGTLVT
VL: VIWMTQSPSLLSASTGDRVTISCRMSQGISSYLAWYQQKPGKAPELLIYAASTLQSGVPSRFSGSGSGTDFTLTISCLQSEDFATYYCQQYYSFPLTFGGGTKVEIKR
B3: F18 (LC: F56Type1; HC: F18) (antibody, human IgG4, V domains shown)
VH: QVQVVQSGAEVKKPGASVRVSCTASGYTFTDYAIHWVRQAPGQRLEWMGWINAGYGNTKYSQKFQGRVTITRDTSASTVYMELSSLRSEDTAVYYCAREGGALSWFGESQGFDYWGQGTLVT
VL: AIQLTQSPSSLSASVGDRVTITCRASQGISSALAWYQQKPGKAPKLLIYDASSLESGVPSRFSGSGSGTDFTLTISSLQPEDFATYYCQQFNSYPLTFGGGTKVEIKR
B4: 15D2 with an S241P mutation (antibody, V domains shown)
VH: QVQLVQSGAEVKRPGASVKVSCKASGYTFTNDIIHWVRQAPGQRLEWMGWINAGYGNTQYSQNFQDRVSITRDTSASTAYMELISLRSEDTAVYYCAREPLWFGESSPHDYYGMDVWGQGTTVTVSS
VL: B3 VL
notes: IgG4 hinge mutation S241P (Kabat); Expressed in HEK293 or CHO cells (host named under assay); also called 15D2-S241P; not shown: human IgG4 heavy chain constant region
B5: human anti-IL20 antibody C11 (antibody, human IgG1, V domains shown)
VH: B4 VH
VL: B3 VL
B6: F56 (LC: F56Type1; HC: F56) (antibody, human IgG4, V domains shown)
VH: B3 VH with V4L, T30P, D31N, V79A, A102V, S104L
VL: B3 VL
B7: human IL19 (ligand)
chain: LRRCLISTDMHHIEESFQEIKRAIQAKDTFPNVTILSTLETLQIIKPLDVCCVTKNLLAFYVDRVFKDHQEPNPKILRKISSIANSFLYMQKTLRQCQEQRQCHCRQEATNATRVIHDNYDQLEVHAAAIKSLGELDVFLAWINKNHEVMFSA
notes: Bought from R&D systems; whole entry named; also called hIL19

What was measured:
[1] = biological target: cynomolgus IL20R1/IL20R2 receptor complex (cynomolgus monkey); assay: cell-based or functional assay
[2] = biological target: cynomolgus IL22R1/IL20R2 receptor complex (cynomolgus monkey); assay: cell-based or functional assay
[3] = biological target: T1, human IL20R1/IL20R2 receptor complex; assay: cell-based or functional assay
[4] = biological target: T2, human IL22R1/IL20R2 receptor complex; assay: cell-based or functional assay
[5] = biological target: B1; assay: cell-based or functional assay
[6] = biological target: B1; assay: SPR (Biacore 3000/T100), antibody amine-coupled on CM5, recombinant hIL20 injected 3.125-100 nM, 1:1 Langmuir, 25 C; antibody from CHO
Experimental: (§1) Affinity studies were performed using a direct binding procedure, with the monoclonal antibody covalently coupled via free amine groups to the carboxymethylated dextrane membrane (CM5) on the sensor chip surface. […] The kinetic parameters for the interaction could be calculated using a 1:1 interaction Langmuir fitting model.
(§2) The purified monoclonal antibodies were immobilized in individual flow cells on a CM5 type sensor chip. Immobilizations were performed using a standard amine coupling procedure, aiming for an immobilization level of 1000 Resonance Units (RU). The antibodies were diluted to 5 μg/ml in 10 mM NaAc pH 5.0. […] Association (injection) was 3 min., followed by a 30 min. dissociation (wash) period. Flow rate was 30 μl/min. Experiments were performed at 25° C. Regeneration of the surface following each cycle, was accomplished by injection of 30 sec. pulse of 10 mM Glycin-HCl pH 1.8, at a 30 ul/min flow rate. Detection in all flow cells simultaneously. Flow cell No. 1 contained no immobilized antibody, and was used for subtraction of background and bulk. […] Data was inspected for mass-transport limitations prior to calculation of the kinetic parameters. Experiments were performed on Biacore 3000 and T100 instruments. Data was evaluated using Biaeval 4.1 and Biacore T100 evaluation software.

[7] = biological target: B1; assay: SPR (Biacore 3000/T100), antibody amine-coupled on CM5, recombinant hIL20 injected 3.125-100 nM, 1:1 Langmuir, 25 C; antibody from HEK293
Experimental: as §1, §2

[8] = biological target: T1, human IL20R1/IL20R2 receptor complex; assay: inferred from BaF-3(hIL20R) proliferation; IL19 reverted the 15D2 block

fold induction of luciferase reporter in transfected BHK cells, 1 nM cynoIL20 [1]: 2 fold
fold induction of luciferase reporter in transfected BHK cells, 1 nM cynoIL20 [2]: 3 to 4 fold
Molecule: cynomolgus IL20 (from UniProt Q9NYY1 25-176) (ligand)

Molecule: B1
fold induction of luciferase reporter in transfected BHK cells, 1 nM hIL20 [3]: ~3 fold
fold induction of luciferase reporter in transfected BHK cells, 1 nM hIL20 [4]: ~3 fold

Molecule: B2
IC50, inhibition of IL20 induced proliferation of BaF-3(hIL20R) at 1e-9M hIL20 (assay 1) [5]: 15400 nM
IC50, inhibition of IL20 induced proliferation of BaF-3(hIL20R) at 1e-9M hIL20 (assay 2) [5]: 13900 nM
IC50, inhibition of IL20 induced proliferation of BaF-3(hIL20R) at 1e-9M hIL20 (assay 3) [5]: 1670 nM
IC50, inhibition of IL20 induced proliferation of BaF-3(hIL20R) at 1e-9M hIL20 (assay 4) [5]: 360 nM
IC50, inhibition of IL20 induced proliferation of BaF-3(hIL20R) at 1e-9M hIL20 (assay 5) [5]: 1800 nM
IC50, inhibition of IL20 induced proliferation of BaF-3(hIL20R) at 1e-9M hIL20 (assay 6) [5]: 320 nM
IC50, inhibition of IL20 induced proliferation of BaF-3(hIL20R) at 1e-9M hIL20 (assay 7) [5]: 15400 nM

Molecule: B3
IC50, inhibition of IL20 induced proliferation of BaF-3(hIL20R) at 1e-9M hIL20 (assay 5) [5]: 50 nM

Molecule: B4
Kd [6]: 0.031 nM
koff [6]: 7.1e-05 s⁻¹
kon [6]: 2.3e+06 M⁻¹ s⁻¹
Kd [7]: 0.036 nM
koff [7]: 6.8e-05 s⁻¹
kon [7]: 1.7e+06 M⁻¹ s⁻¹

Molecule: B5
IC50, inhibition of IL20 induced proliferation of BaF-3(hIL20R) at 1e-9M hIL20 (assay 1) [5]: 260 nM
IC50, inhibition of IL20 induced proliferation of BaF-3(hIL20R) at 1e-9M hIL20 (assay 2) [5]: 2000 nM
IC50, inhibition of IL20 induced proliferation of BaF-3(hIL20R) at 1e-9M hIL20 (assay 3) [5]: 370 nM
IC50, inhibition of IL20 induced proliferation of BaF-3(hIL20R) at 1e-9M hIL20 (assay 7) [5]: 186 nM

Molecule: B6
IC50, inhibition of IL20 induced proliferation of BaF-3(hIL20R) at 1e-9M hIL20 (assay 4) [5]: 40 nM
IC50, inhibition of IL20 induced proliferation of BaF-3(hIL20R) at 1e-9M hIL20 (assay 5) [5]: 730 nM

Molecule: B7
binding result [8]: binds
